From patent US20150337309

Legend:
periostin (Homo sapiens) [1] = biological target: T1, periostin (Homo sapiens) (UniProt Q15063); test: filter
T1 sequence: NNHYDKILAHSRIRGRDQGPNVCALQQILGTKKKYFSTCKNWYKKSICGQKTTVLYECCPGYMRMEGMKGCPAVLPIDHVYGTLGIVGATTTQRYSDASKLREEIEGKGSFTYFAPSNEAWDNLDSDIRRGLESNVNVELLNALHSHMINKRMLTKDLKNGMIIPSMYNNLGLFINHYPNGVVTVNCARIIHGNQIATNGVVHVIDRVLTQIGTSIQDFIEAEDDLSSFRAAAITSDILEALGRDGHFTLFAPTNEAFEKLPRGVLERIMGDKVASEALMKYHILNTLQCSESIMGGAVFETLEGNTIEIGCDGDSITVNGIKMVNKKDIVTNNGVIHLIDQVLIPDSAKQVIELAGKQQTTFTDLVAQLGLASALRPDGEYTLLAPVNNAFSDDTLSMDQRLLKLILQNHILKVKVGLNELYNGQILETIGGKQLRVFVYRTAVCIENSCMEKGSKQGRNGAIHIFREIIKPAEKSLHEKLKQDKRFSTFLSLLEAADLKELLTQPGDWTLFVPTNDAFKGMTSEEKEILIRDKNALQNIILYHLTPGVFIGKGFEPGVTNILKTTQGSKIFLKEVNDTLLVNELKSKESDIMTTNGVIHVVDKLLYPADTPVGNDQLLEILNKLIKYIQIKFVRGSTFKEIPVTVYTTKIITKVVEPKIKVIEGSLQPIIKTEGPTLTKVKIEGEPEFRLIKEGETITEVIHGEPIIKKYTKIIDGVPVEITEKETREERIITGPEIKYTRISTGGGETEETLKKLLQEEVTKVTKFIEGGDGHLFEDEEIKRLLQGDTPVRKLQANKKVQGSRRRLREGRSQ

periostin (Homo sapiens) [2] = biological target: T1, periostin (Homo sapiens); test: cell_activity; conditions: BndU at all n [BndU at 6,7,9,14,16,21,22,26,28,31,34,35,44]; MDA-MB-231 adhesion to periostin-coated wells, 100 nM aptamer; control aptamer no effect

With “ACGAGTCACACGTTGATGACTGGATGGTAGTTAAAGAGGGTGGGGCAACAA [PNDA-2]” the Kd (periostin (Homo sapiens) [1]; BndU at all n [BndU at 6,13,14,17,21,25,28,31,32,41], Bmax 78%) was 7.41 nM.
For “ACGAGTCTGGTCCTTCCTCCCTAATTGCTGTTGAGGTATCGGCTACAACAA [PNDA-4]”, the Kd (periostin (Homo sapiens) [1]; BndU at all n [BndU at 6,8,11,14,15,18,22,25,26,29,31,32,37,39,44], Bmax 90%) was 1 nM.
Work on “ACGAGTCTGGTCCTTCCTTTGACGACTATTGTTTGGTATCGATCAACAACAA [PNDA-1]” yielded a Kd (periostin (Homo sapiens) [1]; BndU at all n [BndU at 6,8,11,14,15,18,19,20,27,29,30,32,33,34,37,39,43], Bmax 92%) of 2.85 nM.
“ACGAGTTGTCGCATGTGCGGTTCAGTCTGGTCCTTCAGCACCGTACAACAA [PNDA-3]” showed an activity (periostin (Homo sapiens) [2]) of 60 % inhibition and a Kd (periostin (Homo sapiens) [1]; BndU at all n [BndU at 6,7,9,14,16,21,22,26,28,31,34,35,44], Bmax 95%) of 1.07 nM.
Work on “GATGTGAGTGTGTGACGAGTCACACGTTGATGACTGGATGGTAGTTAAAGAGGGTGGGGCAACAACAGAACAAGGAAAGG [clone 3 full length]” yielded a Kd (periostin (Homo sapiens) [1]; BndU at all n of the core [BndU at 20,27,28,31,35,39,42,45,46,55], Bmax 72%, 200 mM HEPES, 510 mM NaCl, 25 mM KCl, 25 mM MgCl2, 37 C) of 0.54 nM.
Work on “GATGTGAGTGTGTGACGAGTCTGGTCCTTCCTCCCTAATTGCTGTTGAGGTATCGGCTACAACAACAGAACAAGGAAAGG [clone 17 full length]” yielded a Kd (periostin (Homo sapiens) [1]; BndU at all n of the core [BndU at 20,22,25,28,29,32,36,39,40,43,45,46,51,53,58], Bmax 78%, same buffer, 37 C) of 0.63 nM.
Work on “GATGTGAGTGTGTGACGAGTCTGGTCCTTCCTGTATTAGATCATATCCTTAGGTATCGTCAACAACAGAACAAGGAAAGG [clone 1 full length]” yielded a Kd (periostin (Homo sapiens) [1]; BndU at all n of the core [BndU at 20,22,25,28,29,32,34,36,37,41,44,46,49,50,54,56,59], Bmax 80%, same buffer, 37 C) of 0.6 nM.
Sequence “GATGTGAGTGTGTGACGAGTCTGGTCCTTCCTTTGACGACTATTGTTTGGTATCGGACAACAACAACAGAACAAGGAAAGG [clone 5 full length]” has a Kd (periostin (Homo sapiens) [1]; BndU at all n of the core [BndU at 20,22,25,28,29,32,33,34,41,43,44,46,47,48,51,53], Bmax 80%, same buffer, 37 C) of 1.41 nM.
Sequence “GATGTGAGTGTGTGACGAGTTGTCGCATGTGCGGTTCAGTCTGGTCCTTCAGCACCGTACAACAACAGAACAAGGAAAGG [clone 8 full length]” has a Kd (periostin (Homo sapiens) [1]; BndU at all n of the core [BndU at 20,21,23,28,30,35,36,40,42,45,48,49,58], Bmax 81%, same buffer, 37 C) of 1.14 nM.
